This series can be described thus: protein stability index of a GFP-peptide fusion (yeast GPS) (PSI 1-4); higher = more stable; sorted into four equal gates, so the index is relative within each strain. The procedure, abridged:
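The protein stability index of a peptide was calculated by multiplying its read frequency in each gate by that gate's number and adding the products. The peptides were tiled 17-residue stretches of yeast proteins, fused downstream of GFP on a Cherry-expressing plasmid and carried in yeast as a pooled library. Mid-log cultures in leucine-free medium were sorted into four equal gates by GFP/Cherry ratio, and each gate's plasmids were PCR-amplified and Illumina-sequenced.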

± gives the uncertainty stated by the source.

For the sequence ETVKLPRVSNQSNEDTF [RRI2], the protein stability index runs as follows: (doa10∆) 3.06 ± 0.13; (pdr5∆) 3.22 ± 0.14; (san1∆) 2.94 ± 0.19; (ubr1∆) 3.24 ± 0.1.
The matching figures for EVAQYLQEIYQTDAIKS [RPN5]: 2.3 ± 0.084, 2.44 ± 0.099, 2.47 ± 0.1 and 2.29 ± 0.13.
Consider EVESSDTIDNVKSKIQD [RPS31], for which the protein stability index stood at 3.11 ± 0.21 (doa10∆), 2.78 ± 0.17 (pdr5∆) and 3.12 ± 0.1 (san1∆).
For EVLTYVNYLISNTMYSV [YJL039C/NUP192], the protein stability index stood at 2.45 ± 0.056 (doa10∆), 2.35 ± 0.054 (pdr5∆), 2.45 ± 0.044 (san1∆) and 2.5 ± 0.042 (ubr1∆).
The matching figures for EVPEGVTVSIKSRIVKV [RPL9A]: 1.51 ± 0.064, 1.86 ± 0.061, 1.57 ± 0.097 and 2.26 ± 0.091.
The like results for EVYDFTHAVGNNCEDFV [FAS1] were, in that order, 3.15 ± 0.12, 3 ± 0.18, 2.99 ± 0.071 and 3.05 ± 0.086.
The like results for EWRKSAIANTLLYLRLK [PRP8] were, in that order, 1.85 ± 0.063, 1.54 ± 0.051, 1.41 ± 0.095 and 1.37 ± 0.047.
For EYEELKEKIEKLSKSAT [SMC1], the protein stability index (doa10∆) was 3.33 ± 0.12, the protein stability index (pdr5∆) turned out to be 3.09 ± 0.22, the protein stability index (san1∆) stood at 2.98 ± 0.079 and the protein stability index (ubr1∆) came to 3.08 ± 0.073.
The like results for EYFGGESPVDVQSQVDS [FAS1] were, in that order, 3.01 ± 0.14, 3.38 ± 0.1, 3.19 ± 0.11 and 3.07 ± 0.092.
EYIELEYRDLYTNSVEL [YMR129W/POM152]: the protein stability index was determined as 3.16 ± 0.11 (doa10∆), 3.28 ± 0.096 (pdr5∆) and 3.27 ± 0.085 (san1∆).
Take EYKKHFPPNLEKGENPS [UBP6]: the protein stability index (doa10∆) was 2.9 ± 0.097, the protein stability index (pdr5∆) stood at 2.76 ± 0.055, the protein stability index (san1∆) came out at 2.42 ± 0.073 and the protein stability index (ubr1∆) was found to be 1.93 ± 0.053.
The matching figures for EYKSLFVVGVDNVSSQQ [RPP0]: 3.22 ± 0.055, 2.79 ± 0.067, 3.29 ± 0.091 and 3.24 ± 0.053.
The matching figures for EYKTSSDSLGPDTSNEI [SRB2]: 2.67 ± 0.23, 2.47 ± 0.089, 2.96 ± 0.2 and 2.55 ± 0.1.
The like results for EYKVITSLQGTYEAIEI [YMR129W/POM152] were, in that order, 3.34 ± 0.2, 2.99 ± 0.2, 2.89 ± 0.14 and 3.17 ± 0.13.
Regarding EYLTLNDFNDLNIDWST [MED2], the protein stability index runs as follows: (doa10∆) 2.83 ± 0.06; (pdr5∆) 2.92 ± 0.062; (san1∆) 2.6 ± 0.053; (ubr1∆) 2.51 ± 0.043.
The matching figures for EYMVQYIDEMYNHNDGG [RRI1]: 3.03 ± 0.052, 3.24 ± 0.076, 3.21 ± 0.14 and 3.19 ± 0.087.
The matching figures for EYNKPNSEKFVFLLTTR [ISW2]: 3.09 ± 0.19, 2.58 ± 0.099, 1.59 ± 0.083 and 2.43 ± 0.12.
The like results for EYSPEILQIREEIPSKS [RRP6] were, in that order, 2.66 ± 0.068, 2.79 ± 0.08, 2.54 ± 0.072 and 2.88 ± 0.044.
On to EYSYVDSNMDSISSVVS [RPN4], for which the protein stability index is, setting by setting: (doa10∆) 2.84 ± 0.075; (pdr5∆) 3.26 ± 0.066; (san1∆) 2.68 ± 0.076; (ubr1∆) 3.05 ± 0.043.
As for EYYRIQKQLPQKTRVKL [ESC2], the protein stability index reads like this: (doa10∆) 2.79 ± 0.055; (pdr5∆) 2.77 ± 0.05; (san1∆) 2.86 ± 0.05; (ubr1∆) 2.82 ± 0.039.
Consider FANNHFLNSNAVVVGTG [COR1], for which the protein stability index came out at 1.41 ± 0.064 (doa10∆), 1.91 ± 0.061 (pdr5∆), 2.33 ± 0.064 (san1∆) and 2.04 ± 0.056 (ubr1∆).
In the case of FASLRVLPDADVKLLHS [YJL039C/NUP192], the protein stability index is, setting by setting: (pdr5∆) 2.11 ± 0.1; (san1∆) 1.54 ± 0.2; (ubr1∆) 2.14 ± 0.11.
Consider FAWSKPSTGSNLQQQQQ [YGR119C/NUP57], for which the protein stability index reads like this: (doa10∆) 3.02 ± 0.061; (pdr5∆) 3.06 ± 0.063; (san1∆) 3.02 ± 0.05; (ubr1∆) 2.95 ± 0.045.
Consider FDDSDITKFALFAESHD [YML103C/NUP188], for which the protein stability index was 2.71 ± 0.3 (doa10∆) and 2.92 ± 0.15 (san1∆).
On to FDENIARDIISHNFQNA [PCI8], for which the protein stability index is, setting by setting: (doa10∆) 2.74 ± 0.053; (pdr5∆) 2.77 ± 0.046; (san1∆) 2.67 ± 0.043; (ubr1∆) 2.77 ± 0.039.
Turning to FDFLMNMPNCDYLTLNK [RPN2], the protein stability index was determined as 2.76 ± 0.054 (doa10∆), 2.31 ± 0.068 (pdr5∆), 2.07 ± 0.076 (san1∆) and 1.74 ± 0.039 (ubr1∆).
In the case of FDGFLFGSRVMIAKEVK [FAS1], the protein stability index is, setting by setting: (doa10∆) 2.58 ± 0.15; (pdr5∆) 1.56 ± 0.18; (ubr1∆) 2.55 ± 0.074.
The sequence FDIIEESFKGLQPFWFR [ECM29] came in with a protein stability index (doa10∆) of 2.63 ± 0.11, a protein stability index (pdr5∆) of 2.58 ± 0.15, a protein stability index (san1∆) of 2.35 ± 0.17 and a protein stability index (ubr1∆) of 2.21 ± 0.11.
The matching figures for FDNYQRNNFLAENSHTQ [PUP1]: 3.3 ± 0.081, 3.26 ± 0.075, 3.17 ± 0.058 and 3.19 ± 0.044.
The matching figures for FDTVSNKLFTEPIKLEP [YMR129W/POM152]: 2.58 ± 0.046, 2.7 ± 0.065, 2.64 ± 0.057 and 2.91 ± 0.036.
The like results for FEASCMEGQKLDDPVLN [YJR042W/NUP85] were, in that order, 1.83 ± 0.088, 1.76 ± 0.086, 1.45 ± 0.21 and 1.53 ± 0.061.
Sequence FEGTPPFSLTYVRTEET [YMR129W/POM152] registered a protein stability index (doa10∆) of 2.31 ± 0.052, a protein stability index (pdr5∆) of 2.63 ± 0.056, a protein stability index (san1∆) of 2.54 ± 0.059 and a protein stability index (ubr1∆) of 2.6 ± 0.041.
In the case of FEGWGHEYIRHLALEIG [RPN1], the protein stability index is, setting by setting: (doa10∆) 2.18 ± 0.098; (pdr5∆) 2.06 ± 0.071; (san1∆) 2.41 ± 0.12; (ubr1∆) 2.1 ± 0.083.
The like results for FEKKLSIIKAKLPLLNE [YML103C/NUP188] were, in that order, 2.34 ± 0.095, 1.98 ± 0.13, 1.85 ± 0.23 and 1.69 ± 0.068.
With FELFDNKTAHLSIPGKS [SNU114], the protein stability index by setting is: (doa10∆) 2.11 ± 0.04; (pdr5∆) 2.11 ± 0.055; (san1∆) 2.25 ± 0.058; (ubr1∆) 2.1 ± 0.031.
The like results for FEQDSHLRYQPDGVVVH [SNF6] were, in that order, 3.09 ± 0.087, 3.1 ± 0.078, 3.07 ± 0.046 and 3.09 ± 0.061.
As to FEQTAFSRHAQQQTSTF [SIR4], the protein stability index turned out to be 1.94 ± 0.07 (doa10∆), 2.32 ± 0.092 (pdr5∆), 1.79 ± 0.093 (san1∆) and 2.01 ± 0.055 (ubr1∆).
